Assay results taken from patent US20260132200A1 (Regeneron, published 2026).
Where a chain is given by its changes, count along the chain named.

T1: human CD3 expressed on cells (Jurkat, a CD3+ human T-cell line; human T cells) (human, UniProt P07766 23-126; P04234 22-100)
T1 chain 1: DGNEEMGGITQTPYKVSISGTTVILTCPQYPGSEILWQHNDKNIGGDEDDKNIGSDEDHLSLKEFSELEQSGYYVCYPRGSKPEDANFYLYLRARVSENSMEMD
T1 chain 2: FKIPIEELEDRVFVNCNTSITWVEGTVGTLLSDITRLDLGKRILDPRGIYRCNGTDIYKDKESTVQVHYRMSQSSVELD

T2: human CD20 expressed on Raji cells (CD3-, CD20+ human B-cell line) (human, UniProt P11836 1-297)
T2 sequence: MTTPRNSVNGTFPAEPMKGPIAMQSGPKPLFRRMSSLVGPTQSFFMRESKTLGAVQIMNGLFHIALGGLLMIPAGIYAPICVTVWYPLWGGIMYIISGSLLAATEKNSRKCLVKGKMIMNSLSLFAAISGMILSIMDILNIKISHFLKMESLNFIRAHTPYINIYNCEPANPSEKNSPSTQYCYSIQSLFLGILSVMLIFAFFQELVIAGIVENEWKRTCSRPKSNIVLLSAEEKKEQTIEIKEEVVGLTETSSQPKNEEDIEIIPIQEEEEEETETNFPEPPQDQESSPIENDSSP

T3: Soluble heterodimeric CD3 protein (hCD3-epsilon/hCD3-delta) with either a human Fc tag (hFcΔAdp/hFc) or a … (human, UniProt P07766 23-126; P04234 22-100)
T3 construct: Soluble construct; not shown: Fc tag: human (hFcΔAdp/hFc)
T3 chain 1: T1 chain 1
T3 chain 2: T1 chain 2

B1: H1H5778P (antibody, human IgG1, V domains shown)
VH: EVQLVESGGGLVQPGRSLRLSCVASGFTFADFTMHWVRQAPGKGLEWVSGISWNSNSIDYADSVKGRFTISRDNAKKSLFLQMSSLRAEDTALYYCVKDRSGYSRFYYGMDVWGQGTTVTVSS
VL: EIVMTQSPATLSVSPGERAILSCRASQNINSNLAWYQQKPGQAPRLLIYGASTRATGVPARFSGSGSGTEFTLTIRSLQSEDFAVYYCQQYYNWPITFGHGTRLEIK
B2: H1H5772S (antibody, human IgG1, V domains shown)
VH: QVQLVESGGGLVQPGRSLRLSCAASGFSFDDYAMHWVRQAPGQGLEWVSGISWNGGSRDYADSVKGRFTISRDNARNSLFLQMNSLFTEDTALYYCAKDKSGYGSYFYGMDVWGQGTTVTVSS
VL: EIVLTQSPGILSLSPGDRATLSCRASQSIRNIYLAWYQQKPGQAPRLLIHGASTRATGIPDRFSGSGSGTDFTLTISRLEPEDFAVYYCQQRVSSPYTFGQGTKLEIK
B3: H1H5781P (antibody, human IgG1, V domains shown)
VH: EVQLVESGGGLVQPGRSLRLSCAASGFTFDDFTMHWVRQAPGKGLEWVSDISWNSGSIDYADSVKGRFTISRDNARNSLFLQMSSLRTEDTASYYCIKDKSGYGSYNYGLDVWGQGTTVTVSS
VL: B2 VL with I10T, I29V, R30S, N31S, V86L, Q90H
B4: H1H5782P (antibody, human IgG1, V domains shown)
VH: B2 VH with Q1E, S28T, Q43K, G55S, R58K, A75T, F87R, Y106F, F107Y
VL: not shown
B5: H1H5780P (antibody, human IgG1, V domains shown)
VH: EVQLVESGGGLVQPGRSLRLSCAASGFTFDDYAMHWVRQAPGKGLEWVSGISWNGGSKDYADSVKGRFTISRDNTRNSLSLQMNSLRIEDTALYYCAKDKSGYGSFYYGLDVWGQGTTVTVSS
VL: B2 VL with I10T, N31S
B6: BS3/20-007 (bispecific antibody, V domains shown)
VH 1: EVQLVESGGGLVQPGRSLRLSCVASGFTFNDYAMHWVRQAPGKGLEWVSVISWNSDSIGYADSVKGRFTISRDNAKNSLYLQMHSLRAEDTALYYCAKDNHYGSGSYYYYQYGMDVWGQGTTVTVSS
VH 2: DVQLVQSGAEVKKPGASVKVSCKASGYTFTRYTMHWVRQAPGQGLEWIGYINPSRGYTNYADSVKGRFTITTDKSTSTAYMELSSLRSEDTATYYCARYYDDHYCLDYWGQGTTVTVSS
VL: DIVLTQSPATLSLSPGERATLSCRASQSVSYMNWYQQKPGKAPKRWIYDTSKVASGVPARFSGSGSGTDYSLTINSLEAEDAATYYCQQWSSNPLTFGGGTKVEIK
B7: BS3/20-005 (bispecific antibody, V domains shown)
VH 1: B6 VH 1
VH 2: QVQLVESGGGVVQPGRSLRLACVASGFTFRSYGMHWVRQAPGKGLQWVAMIYYDGKNKYYADSVRGRFTISRDNSKNTLYLQMNNLRVEDTAMYFCARGPGYNWLDPWGQGTLVTVSS
VL: EIVMTQSPATLSVSPGERATLSCRASQRISSNLAWYQQKPGQAPRLLIYGASTRATGSPARFSGSGSGTDFTLTISSLQSEDVAVYYCQQHHNWPLTFGGGTKVEIK
B8: H1H5786B (antibody, human IgG1, V domains shown)
VH: QVQLVESGAEVKKPGASVKVSCKTSGYTFTGYYMHWIRQAPGQGLEWMGWINPKSGGTNYAQKFQGRVTMTRDTSISTAYMELSRLRSDDMAVYYCARMGDGAVFDFWGQGTLVTVSS
VL: AIQMTQSPSSLSASVGDRVTITCRASQRISSFLNWYQQKPGKAPKLLIYTASNLQNGVPSRFSGSGSGTDFTLTISSLQPEDFATYYCQQSYRTPLTFGGGTKVEIKR
B9: H1H5795B (antibody, human IgG1, V domains shown)
VH: B8 VH with Q1E, T28S, T30I, M34I, I37M, G57V, K63R, R87K, M91T, Y95F
VL: B8 VL with A1D, M4L, A43V, S65T, E105D
B10: H1H5790B (antibody, human IgG1, V domains shown)
VH: EVQLVESGGGVVQPGRSLRLSCAASGFTFSYYGMHWVRQAPGKGLEWVAVISFDGKNKYYADSVMGRFTISRDNSKNTLYLQMNSLRAEDSAVFFCARSYDILTGYGAGYSYHYGMDVWGQGTTVTVSS
VL: B8 VL
B11: H1H5801B (antibody, human IgG1, V domains shown)
VH: QVQLVQSGGGVVQPGGSLRLSCAASGFTFDDYAMHWVRQAPGKGLEWVSLISGDGGSTYYADSVKGRFTISRDNSKNSLYLQMNSLRTEDTALYYCAKDDSSSSWYYYYYGMDVWGRGTTVTVSS
VL: B8 VL with A1D, F32Y, L46V, Y49S, T50V, N53S, N56S, T85S, R93N
B12: H1H5798B (antibody, human IgG1, V domains shown)
VH: QVQLVQSGGGLVKPGGSLRLSCAASGFTFSSYDMSWVRQAPGKGLEWVSYISSSGNTIHYADSVKGRFTISRDNSKNSLYLQMNSLRAEDTAVYYCAKAGPATVTRRYYYYYGLDVWGQGTTVTVSS
VL: B8 VL with A1D, Q3V, G16R, F32Y, Y36F, L46V, N53S
B13: H1H5792B (antibody, human IgG1, V domains shown)
VH: QVQLVESGGGVVQPGRSLRLSCAASGFTFSSYGMHWVRQAPGKGLEWVSTISFDGSNKYYADSVKGRFTISRDNSKNTLYLQMNSLRPEDTAVYYCAKGGGTSGSYFYYGMDVWGQGTTVTVSS
VL: B8 VL with V104L
B14: H1H5791B (antibody, human IgG1, V domains shown)
VH: B8 VH with F29L, T30S, I37M, G57V, G66D, T69A, M91T, G109A
VL: B8 VL with A1D, M4L, V104L
B15: H2M3547N (antibody, V domains shown)
VH: EAQLVESGGGLVQPGRSLRLSCTTSGFTFDDYTMHWVRQAPGKGLEWISDISWNGGTKGYADSVKGRFTISRDNAKNSLYLQMDSLRGEDTALYYCVKDKSGYGHFYFGLDVWGQGTTVTVSS
VL: DIQMTQSPSSLTASVGDRVTFTCRASQSISRHLSWYQQKPGKAPKLLIYAASSLESGVPSRFSGSGSGTDFTLTISSLHPEDFATYYCQQSYSNPPITFGQGTRLEIK
notes: mouse IgG2 Fc, human variable regions
B16: H1H5793B (antibody, human IgG1, V domains shown)
VH: QVQLVQSGTEVKKPGASMKVSCKASGYTFTGYYIHWVRQAPGQGLEWMGWINPNSDVTKYAQKFQGRVTLTRDTSISAAYIDLSRLRSDDTAIYYCARMGDGAVFDYWGQGTLVTVSS
VL: DIQLTQSPSSLSASVGDRVTITCRASQRISSYLNWYQQKPGKAPKVLISVASSLQSGVPSRFSGSGFGTDFTLTISSLQPEDSASYYCQQSYNTPLTFGGGTKLEIKR
B17: H1H5797B (antibody, human IgG1, V domains shown)
VH: B16 VH with M18V, I34M, K59N, A78T
VL: B16 VL with L4M, F67S, S83F, L104V

Key:
[1] = target: T1, human CD3 expressed on cells (Jurkat, a …); assay: cell-based or functional assay
[2] = target: T2, human CD20 expressed on Raji cells …; assay: cell-based or functional assay
[3] = target: T2, human CD20 expressed on Raji cells …; assay: FACS on Raji cells
Experimental: CD20×CD3 bispecific antibodies and Control constructs, as set forth in Example 1, were tested via FACS for their ability to bind to Jurkat (CD3+, CD20− human T-cell line), Raji (CD3−, CD20+ Human B-cell line), or cynomolgus PBMCs (“mkT cells”).
FACS data was acquired using the following protocol: Cells at 2×10⁵ per well were incubated with serially diluted antibodies for 30 min on ice. Post incubation, cells were washed and appropriate secondary (Jurkat, RAJI cells) or cocktail of secondary antibodies (for cyno PBMC) was added and incubated for an additional 30 minutes. After incubation, cells were washed, re-suspended in cold PBS containing 1% BSA and analyzed by flow cytometry on a BD FACS Canto II. Jurkat and Raji cells were gated by side and forward scatters, while cynomolgus T cells were also gated in a CD2+CD4+ population. The EC₅₀s for cell binding titration were determined using Prism software with values calculated using a 4-parameter non-linear regression analysis.

[4] = target: T2, human CD20 expressed on Raji cells …; assay: cell-based or functional assay; remark: listed apart in the source
[5] = target: T3, Soluble heterodimeric CD3 protein …; assay: SPR Biacore 25C antigen-capture
Experimental: Measurements were conducted on a T200 Biacore instrument.
In the antigen-capture format, heterodimeric CD3 protein was captured using a rabbit anti-mouse Fc or mouse anti-human Fc and the respective antibodies were injected over the captured antigen.
Kinetic association (kₐ) and dissociation (kd) rate constants were determined by processing and fitting the data to a 1:1 binding model using Scrubber 2.0 curve fitting software. Binding dissociation equilibrium constants (KD) and dissociative half-lives (t_{1/2}) were calculated from the kinetic rate constants as: KD (M)=kd/kₐ; and t_{1/2} (min) (ln 2/(60*kd). NT=not tested; NB=no binding observed.

Binder	U937 Cytotoxicity Human T-cells [M] (EC50) [1]	other results
B1	3.41e-13	–
B2	6.89e-13	–
B3	1.83e-12	–
B4	5.18e-12	–
B5	4.03e-12	–
B6	–	CDC EC50, Raji [2]: 2.62 nM; CDC EC50, Raji SCID1 [2]: 101 nM; CDC EC50, Raji SCID2 [2]: 8.83 nM; CDC EC50, Raji SCID3 [2]: 37.7 nM; CDC EC50, Raji SCID4 [2]: 140 nM; T-Cell Mediated Cytotoxicity EC50, Raji [2]: 0.00166 nM; T-Cell Mediated Cytotoxicity EC50, Raji SCID1 [2]: 0.00111 nM; T-Cell Mediated Cytotoxicity EC50, Raji SCID2 [2]: 0.000652 nM; T-Cell Mediated Cytotoxicity EC50, Raji SCID3 [2]: 0.000293 nM; T-Cell Mediated Cytotoxicity EC50, Raji SCID4 [2]: 0.00153 nM
B7	–	EC50 [3]: 81.7 nM; Raji Cytotoxicity Human T-cells [M] (EC50) [4]: 1.95e-11 M
B8	6.1e-11	–
B9	6.74e-11	–
B10	8.71e-11	–
B11	9.23e-11	–
B12	1.81e-10	–
B13	1.4e-10	–
B14	8.01e-11	–
B15	–	koff [5]: 1e-05 s⁻¹; kon [5]: 470000 M⁻¹ s⁻¹
B16	8.85e-11	–
B17	5.76e-10	–
